According to paper PMC4618232 (Nature chemical biology, 2015):
One block for each binder: values may come before it.

B1: mouse XXYLT1 (Xylosideα1–3 Xylosyltransferase), soluble domain S43–D392 after limited proteolysis with trypsin (enzyme, UniProt Q3U4G3 93-391, looked up)
chain: VVPVDYHLLMMFTKAEHNAPLQAKARVALSSLLRLAKFEAHEVLNLHFVSEEASREVAKALLRELLPPAAGFKCKVIFHDVAVLTDKLFPVVEAMQKYFSAGSGTYYSDSIFFLSVAMHQIMPKEIPRIIQLDLDLKYKTNIRELFEEFDNFLPGAVIGIAREMQPVYRHTFWQFRHENPKTRVGDPPPEGLPGFNSGVMLLNLEAMRQSPLYSHLLEPSWVQQLADKYHFRGHLGDQDFFTMIGMEHPELFHVLDCTWNRQLCTWWRDHGYSDVFQAYFRCEGHVKIYHGNCNTPIPE

Columns and labels:
crystal structure = target: the molecule itself; assay: crystal structure
[1] = target: B1; assay: SEC
[2] = target: B1; assay: crystal structure

Binder: B1
stoichiometry N (crystal structure): 2

binding result [1]: binds
Binder: VDGDQCESNPCLNGGSCKDDINSYECWCPFGFEGKNCEL (domain or fragment, Xyl-Glc disaccharide on Ser53) [human factor IX (hFA9) EGF repeat modified with the Xyl-Glc disaccharide]

binding result [2]: binds
Binder: VDGDQCESNPCLNGGSCKDDINSYECWCPFGFEGKNCEL (domain or fragment, Xyl-Xyl-Glc trisaccharide on Ser53) [human factor IX (hFA9) EGF repeat with the Xyl-Xyl-Glc trisaccharide (product of XXYLT1)]
